One data set in a line: circular dichroism. To be noted: 10 mM phosphate; pH 7.5; 25 °C; 50 uM. Background: Circular dichroism is the unequal absorption of left and right circularly polarised light.
The nature of data set [1]: Circular dichroism spectroscopy, α-helical content. To be noted: CD, 10 mM phosphate buffer pH 7.5, 50 μM peptide, 25°C, calculated from ellipticity at 222 nm; average of three measurements. Format: physicochemical. As for the experimental part:
The α-helical stabilization appeared to be higher for the i, i + 7 staples overall.
The circular dichroism spectra were acquired on a Chirascan spectropolarimeter. The samples were prepared in 10 mM phosphate buffer, pH 7.5, at a peptide concentration of 50 μM. Data were recorded at 25°C by step scan from 180 nm to 260 nm in a 0.5-mm-pathlength quartz cell using 0.2-nm-wavelength increments, a 1-nm bandwidth, and a response time of 1 s. Each spectrum was an average of three measurements and was subtracted from the buffer baseline. The data were converted to per residue molar ellipticity units (θ; in degrees · square centimeters · decimoles^−1 · number of residues^−1) and smoothed using Igor Pro software. Percent helicity was calculated as follows: (100 × CD222)/(C × N × {40,000 × [1 − (2.5/N)]}), where CD222 is the molar ellipticity (θ) at 222 nm (in millidegrees), N is the number of amino acids in the peptide, and C is the peptide molar concentration (in moles per liter).

Where a SMILES comes first, the peptide text is derived from it. Bridges are numbered along the chain shown (N, C = ends). [ ]: non-standard residue; d: D form. R8 = C=CCCCCCC[C@@](C)(N)C(=O)O; R5 = C=CCCC[C@@](C)(N)C(=O)O; S5 = C=CCCC[C@](C)(N)C(=O)O

As for `CC[C@H](C)[C@H](NC(=O)[C@H](CO)NC(=O)[C@H](CCC(=O)O)NC(=O)[C@H](CC(C)C)NC(=O)[C@H](Cc1ccccc1)NC(=O)[C@H](CCCCN)NC(=O)[C@@H](NC(=O)[C@H](C)NC(=O)[C@H](CCCCN)NC(=O)[C@H](CC(N)=O)NC(=O)[C@H](CC(N)=O)NC(=O)[C@H](C)NC(=O)[C@H](CC(=O)O)NC(=O)[C@H](CCC(=O)O)NC(C)=O)[C@@H](C)O)C(=O)N[C@@H](CCCCN)C(=O)N[C@@]1(C)CCCC=CCCC[C@@](C)(C(N)=O)NC(=O)[C@H](C)NC(=O)[C@H](Cc2ccccc2)NC(=O)[C@H](CCCCN)NC1=O` (Ac-EDANNKATKFLESIK[S5]KFA[S5]-NH2; staple 16-20), in “circular dichroism”, the helicity was 24.1%.
The same measure, in the same setting: to `CC[C@H](C)[C@@H]1NC(=O)[C@](C)(NC(=O)[C@H](CCC(=O)O)NC(=O)[C@H](CC(C)C)NC(=O)[C@H](Cc2ccccc2)NC(=O)[C@H](CCCCN)NC(=O)[C@@H](NC(=O)[C@H](C)NC(=O)[C@H](CCCCN)NC(=O)[C@H](CC(N)=O)NC(=O)[C@H](CC(N)=O)NC(=O)[C@H](C)NC(=O)[C@H](CC(=O)O)NC(=O)[C@H](CCC(=O)O)NC(C)=O)[C@@H](C)O)CCCC=CCCC[C@@](C)(C(=O)N[C@@H](CCCCN)C(=O)N[C@@H](Cc2ccccc2)C(=O)N[C@@H](C)C(=O)N[C@@H](CO)C(N)=O)NC(=O)[C@H](CCCCN)NC1=O` (Ac-EDANNKATKFLE[R5]IK[S5]KFAS-NH2; staple 13-16) belongs 30.7%; to `CC[C@H](C)[C@@H]1NC(=O)[C@@](C)(NC(=O)[C@H](CCC(=O)O)NC(=O)[C@H](CC(C)C)NC(=O)[C@H](Cc2ccccc2)NC(=O)[C@H](CCCCN)NC(=O)[C@@H](NC(=O)[C@H](C)NC(=O)[C@H](CCCCN)NC(=O)[C@H](CC(N)=O)NC(=O)[C@H](CC(N)=O)NC(=O)[C@H](C)NC(=O)[C@H](CC(=O)O)NC(=O)[C@H](CCC(=O)O)NC(C)=O)[C@@H](C)O)CCCC=CCCC[C@@](C)(C(=O)N[C@@H](Cc2ccccc2)C(=O)N[C@@H](C)C(=O)N[C@@H](CO)C(N)=O)NC(=O)CNC(=O)[C@H](CCCCN)NC1=O` (Ac-EDANNKATKFLE[S5]IKG[S5]FAS-NH2; staple 13-17), 46.5%.
On the same count and under the same terms, with `CC[C@H](C)[C@@H]1NC(=O)[C@H](CO)NC(=O)[C@](C)(NC(=O)[C@H](CC(C)C)NC(=O)[C@H](Cc2ccccc2)NC(=O)[C@H](CCCCN)NC(=O)[C@@H](NC(=O)[C@H](C)NC(=O)[C@H](CCCCN)NC(=O)[C@H](CC(N)=O)NC(=O)[C@H](CC(N)=O)NC(=O)[C@H](C)NC(=O)[C@H](CC(=O)O)NC(=O)[C@H](CCC(=O)O)NC(C)=O)[C@@H](C)O)CCCCCCC=CCCC[C@@](C)(C(=O)N[C@@H](CO)C(N)=O)NC(=O)[C@H](Cc2ccccc2)NC(=O)[C@H](CCCCN)NC(=O)CNC(=O)[C@H](CCCCN)NC1=O` (Ac-EDANNKATKFL[R8]SIKGKF[S5]S-NH2; staple 12-19) the figure was 35.3%.
In “circular dichroism”, `CC[C@H](C)[C@H](NC(=O)[C@H](CO)NC(=O)[C@]1(C)CCCC=CCCC[C@@](C)(NC(=O)[C@@H](NC(=O)[C@H](C)NC(=O)[C@H](CCCCN)NC(=O)[C@H](CC(N)=O)NC(=O)[C@H](CC(N)=O)NC(=O)[C@H](C)NC(=O)[C@H](CC(=O)O)NC(=O)[C@H](CCC(=O)O)NC(C)=O)[C@@H](C)O)C(=O)N[C@@H](Cc2ccccc2)C(=O)N[C@@H](CC(C)C)C(=O)N1)C(=O)N[C@@H](CCCCN)C(=O)NCC(=O)N[C@@H](CCCCN)C(=O)N[C@@H](Cc1ccccc1)C(=O)N[C@@H](C)C(=O)N[C@@H](CO)C(N)=O` (Ac-EDANNKAT[R5]FL[S5]SIKGKFAS-NH2; staple 9-12) yielded a helicity of 58.9%.
On to `CC[C@H](C)[C@@H]1NC(=O)[C@H](CO)NC(=O)[C@H](CCC(=O)O)NC(=O)[C@H](CC(C)C)NC(=O)[C@H](Cc2ccccc2)NC(=O)[C@](C)(NC(=O)[C@@H](NC(=O)[C@H](C)NC(=O)[C@H](CCCCN)NC(=O)[C@H](CC(N)=O)NC(=O)[C@H](CC(N)=O)NC(=O)[C@H](C)NC(=O)[C@H](CC(=O)O)NC(=O)[C@H](CCC(=O)O)NC(C)=O)[C@@H](C)O)CCCCCCC=CCCC[C@@](C)(C(=O)N[C@@H](CCCCN)C(=O)N[C@@H](Cc2ccccc2)C(=O)N[C@@H](C)C(=O)N[C@@H](CO)C(N)=O)NC(=O)[C@H](CCCCN)NC1=O` (Ac-EDANNKAT[R8]FLESIK[S5]KFAS-NH2; staple 9-16), for which the helicity in the data set “circular dichroism” was 96%.
The same measure, in the same setting: with `CC[C@H](C)[C@H](NC(=O)[C@H](CO)NC(=O)[C@]1(C)CCCC=CCCC[C@](C)(NC(=O)[C@H](C)NC(=O)[C@H](CCCCN)NC(=O)[C@H](CC(N)=O)NC(=O)[C@H](CC(N)=O)NC(=O)[C@H](C)NC(=O)[C@H](CC(=O)O)NC(=O)[C@H](CCC(=O)O)NC(C)=O)C(=O)N[C@@H](CCCCN)C(=O)N[C@@H](Cc2ccccc2)C(=O)N[C@@H](CC(C)C)C(=O)N1)C(=O)N[C@@H](CCCCN)C(=O)NCC(=O)N[C@@H](CCCCN)C(=O)N[C@@H](Cc1ccccc1)C(=O)N[C@@H](C)C(=O)N[C@@H](CO)C(N)=O` (Ac-EDANNKA[S5]KFL[S5]SIKGKFAS-NH2; staple 8-12) the figure was 31%.
Still for that read-out and setting: to `CC[C@H](C)[C@H](NC(=O)[C@]1(C)CCCC=CCCCCCC[C@@](C)(NC(=O)[C@H](CC(N)=O)NC(=O)[C@H](CC(N)=O)NC(=O)[C@H](C)NC(=O)[C@H](CC(=O)O)NC(=O)[C@H](CCC(=O)O)NC(C)=O)C(=O)N[C@@H](C)C(=O)N[C@@H]([C@@H](C)O)C(=O)N[C@@H](CCCCN)C(=O)N[C@@H](Cc2ccccc2)C(=O)N[C@@H](CC(C)C)C(=O)N[C@@H](CCC(=O)O)C(=O)N1)C(=O)N[C@@H](CCCCN)C(=O)NCC(=O)N[C@@H](CCCCN)C(=O)N[C@@H](Cc1ccccc1)C(=O)N[C@@H](C)C(=O)N[C@@H](CO)C(N)=O` (Ac-EDANN[R8]ATKFLE[S5]IKGKFAS-NH2; staple 6-13) belongs 36.5%; to `CC[C@H](C)[C@H](NC(=O)[C@H](CO)NC(=O)[C@]1(C)CCCC=CCCCCCC[C@@](C)(NC(=O)[C@H](CC(N)=O)NC(=O)[C@H](C)NC(=O)[C@H](CC(=O)O)NC(=O)[C@H](CCC(=O)O)NC(C)=O)C(=O)N[C@@H](CCCCN)C(=O)N[C@@H](C)C(=O)N[C@@H]([C@@H](C)O)C(=O)N[C@@H](CCCCN)C(=O)N[C@@H](Cc2ccccc2)C(=O)N[C@@H](CC(C)C)C(=O)N1)C(=O)N[C@@H](CCCCN)C(=O)NCC(=O)N[C@@H](CCCCN)C(=O)N[C@@H](Cc1ccccc1)C(=O)N[C@@H](C)C(=O)N[C@@H](CO)C(N)=O` (Ac-EDAN[R8]KATKFL[S5]SIKGKFAS-NH2; staple 5-12), 64.6%.
In the case of `CC[C@H](C)[C@H](NC(=O)[C@H](CO)NC(=O)[C@H](CCC(=O)O)NC(=O)[C@H](CC(C)C)NC(=O)[C@H](Cc1ccccc1)NC(=O)[C@]1(C)CCCC=CCCC[C@](C)(NC(=O)[C@H](CC(N)=O)NC(=O)[C@H](C)NC(=O)[C@H](CC(=O)O)NC(=O)[C@H](CCC(=O)O)NC(C)=O)C(=O)N[C@@H](CCCCN)C(=O)N[C@@H](C)C(=O)N[C@@H]([C@@H](C)O)C(=O)N1)C(=O)N[C@@H](CCCCN)C(=O)NCC(=O)N[C@@H](CCCCN)C(=O)N[C@@H](Cc1ccccc1)C(=O)N[C@@H](C)C(=O)N[C@@H](CO)C(N)=O` [2a] (Ac-EDAN[S5]KAT[S5]FLESIKGKFAS-NH2; staple 5-9), in “circular dichroism”, the helicity is 17.9%. Further, in data set [1], the “% helicity” value is reported as 17.9%.
`CC[C@H](C)[C@H](NC(=O)[C@H](CO)NC(=O)[C@H](CCC(=O)O)NC(=O)[C@H](CC(C)C)NC(=O)[C@H](Cc1ccccc1)NC(=O)[C@H](CCCCN)NC(=O)[C@@H](NC(=O)[C@H](C)NC(=O)[C@]1(C)CCCC=CCCCCCC[C@@](C)(NC(=O)[C@H](Cc2ccccc2)NC(=O)[C@H](CCC(=O)O)NC(C)=O)C(=O)NCC(=O)N[C@@H](CCC(=O)O)C(=O)N[C@@H](CC(=O)O)C(=O)N[C@@H](C)C(=O)N[C@@H](CC(N)=O)C(=O)N[C@@H](CC(N)=O)C(=O)N1)[C@@H](C)O)C(=O)N[C@@H](CCCCN)C(=O)NCC(=O)N[C@@H](CCCCN)C(=O)N[C@@H](Cc1ccccc1)C(=O)N[C@@H](C)C(=O)N[C@@H](CO)C(N)=O` [4e] (Ac-EF[R8]GEDANN[S5]ATKFLESIKGKFAS-NH2; staple 3-10): the “% helicity” value in data set [1] is 28.8%.
The same measure, in the same setting: to `CC[C@H](C)[C@H](NC(=O)[C@H](CO)NC(=O)[C@H](CCC(=O)O)NC(=O)[C@H](CC(C)C)NC(=O)[C@H](Cc1ccccc1)NC(=O)[C@]1(C)CCCC=CCCCCCC[C@@](C)(NC(=O)[C@H](CCC(=O)O)NC(=O)CNC(=O)[C@H](Cc2c[nH]cn2)NC(=O)[C@H](Cc2ccccc2)NC(=O)[C@H](CCC(=O)O)NC(C)=O)C(=O)N[C@@H](C)C(=O)N[C@@H](CC(N)=O)C(=O)N[C@@H](CC(N)=O)C(=O)N[C@@H](CCCCN)C(=O)N[C@@H](C)C(=O)N[C@@H]([C@@H](C)O)C(=O)N1)C(=O)N[C@@H](CCCCN)C(=O)NCC(=O)N[C@@H](CCCCN)C(=O)N[C@@H](Cc1ccccc1)C(=O)N[C@@H](C)C(=O)N[C@@H](CO)C(N)=O` [4f] (Ac-EFHGE[R8]ANNKAT[S5]FLESIKGKFAS-NH2; staple 6-13) belongs 17.2%; to `CC[C@H](C)[C@H](NC(=O)[C@]1(C)CCCC=CCCCCCC[C@@](C)(NC(=O)[C@H](CC(N)=O)NC(=O)[C@H](CC(N)=O)NC(=O)[C@H](C)NC(=O)[C@H](CC(=O)O)NC(=O)[C@H](CCC(=O)O)NC(=O)CNC(=O)[C@H](Cc2c[nH]cn2)NC(=O)[C@H](Cc2ccccc2)NC(=O)[C@H](CCC(=O)O)NC(C)=O)C(=O)N[C@@H](C)C(=O)N[C@@H]([C@@H](C)O)C(=O)N[C@@H](CCCCN)C(=O)N[C@@H](Cc2ccccc2)C(=O)N[C@@H](CC(C)C)C(=O)N[C@@H](CCC(=O)O)C(=O)N1)C(=O)N[C@@H](CCCCN)C(=O)NCC(=O)N[C@@H](CCCCN)C(=O)N[C@@H](Cc1ccccc1)C(=O)N[C@@H](C)C(=O)N[C@@H](CO)C(N)=O` [4g], 47.6%.

The record behind these values is paper PMC7508628, “Targeting the Respiratory Syncytial Virus N^0-P Complex with Constrained α-Helical Peptides in Cells and Mice” (Antimicrobial Agents and Chemotherapy, 2020).
